According to patent publication US20250115926A1, “DEREGULATED DHS AND TYRA ENZYMES OF GRASSES ENABLE EFFICIENT PRODUCTION OF BOTH TYROSINE AND PHENYLALANINE” (priority 2023, published 2025):

B1: Sorghum bicolor SbTyrA1, SEQ ID NO: 39, recombinant (Sorghum bicolor) (protein)
chain: MLSSSTSTLRLHQPTRPHRHHPPAPAAGGATHLASPRRWRGHAPGASSPPALRARAQRIRALDAAQPFDFESRAAGLLEERQRLKIAIVGFGNFGQFLARTFARQGHTLLAHSRTDHSALASTLGASFFTDPHDLCECHPDVVLLATSILSAEAVLRSLPVHRLRRNTLFVDVLSVKEFPRNLLLSSLPPDFDVICTHPMFGPESARDGWDGLPFVFDKVRVGDCPARRARAEAFLNIFEREGCRMVEMSCAEHDAHAAETQFLTHTVGRMLAMLELRSTPINTKGYETLLRLVDNTCSDSFDLYNGLFMYNKNSTELLNRVEWAMDSVKKKLFDGLHDVLRKQLFEGSPHAPNVSSSNVRK
notes: from genomic DNA
B2: Sorghum bicolor SbTyrA2, SEQ ID NO: 41, recombinant (Sorghum bicolor) (protein)
chain: ATGASQPLGTDSNEEVEKVEEQPQPPPRLKIAVVGFGTFGQFLARTLVAQGHTVLAHSRSDHSAAAASMGALFFSDPHDLCECHPDVVLLATSILSAESVVRSLPLHRLRRDTLFADVLSVKEFPKRLLLGLLPEEMDILCTHPMFGPESARAGWAGLPFMFDKVRVRDTVPARRARAEAFLDVFAQEGCRMVEMSCAEHDAHAAETQFLTHTVGRMLAALELRATPIDTRGYETLLRLVENTCSDSFDLYNGLFMYNNNSTELLNRLDWAMDAVKRRLFDGLHDVLRRQLFHVGEVEGEAERMEELAVVPGGGPDTDDDGCATATATSIKSGEENN
notes: from genomic DNA
B3: Sorghum bicolor SbTyrAnc (non-canonical TyrA), SEQ ID NO: 43, recombinant (Sorghum bicolor) (protein)
chain: ALTSPSPVEQHLQAVVPCHGISDPPAASSAAAVPAAPLRVGIVGFGNFGQFIAGGLQRQGHVVLAASRSDYSVYCASHGIRFFRSVDALCEEQPDVLLICSSILSTEGVVRAIPFRKLRHDTIVADVLSVKEFPRNLLLEVLPPGFGIICTHPMFGPESGKHGWGKLPFVFDKVRVAEDGDQAAKCDQFLSIFEQEGCRMVEMSCAEHDRYAAGSQFITHTIGRVLSQLNLKSTPINTKGYETLLQLTKNTVSDSFDLYYGLFMYNVNATEQLDKLEMAFEKVRQMLSGRLHDFIRKQIVERAAHVPADPSGKLANGLSSSPAARLL
notes: from cDNA
B4: Brachypodium distachyon BdTyrA1, SEQ ID NO: 33, recombinant (Brachypodium distachyon) (protein)
chain: MLSSSTSHLRLHQPSRAARRLPPAPAPATYQFQSPASRRSLPAPAVGARIRPNRGGTIRAIDAAQPFDYESRAAGLLEERQRLKIAIVGFGNFGQFLARTFARQGHTLLAHSRSDHSSLAASLGAAYFQDPHDLCECHPDVVLLATSILSAEAVLRSLPVHRLRRNTLFVDVLSVKEFPKNLLLTTLPEGFDIICTHPMFGPESARDGWDGLPFVFDKVRVGDCPARRARADTFLNIFEREGCRMVEMSCAEHDAHAAETQFLTHTVGRMLATLELQSTPINTKGYETLLRLVDNTCSDSFDLYNGLFMYNKNSTDLLNRLESAMDSVKKRLFDGLHDVLRKQLFEGKASPPATSSNTKSDVHRGQLLLEGKASPAPLNANNTTVRN
notes: from genomic DNA
B5: Brachypodium distachyon BdTyrA2, SEQ ID NO: 35, recombinant (Brachypodium distachyon) (protein)
chain: RATDAARQPFDHLSGAVKSEEGTHPRLKIAIVGFGNYGQFLARTMVQQGHTVLAHSRSDHSAAAATIGASFYADAHDLCECQPDVVLLSTSILSAEAVLRSLPVHRFRRSTLFADVLSVKEFPKNLLLAYLPGDFDVICTHPMFGPESARDGWAGLPFVFDEVRVGDGPARRARADAFLDVFAREGCRMVEMSCAEHDAHAAETQFLTHTVGRMLATLDLKSTPINTKGYETLLRLVDNTCSDSFDLYNGLFMYNNNATELLHRLESAMDSVKRRLFDGLHEVLRRQLFEGSPPLNRDSSFPAESSLDDGR
B6: Brachypodium distachyon BdTyrAnc (non-canonical TyrA), SEQ ID NO: 37, recombinant (Brachypodium distachyon) (protein)
chain: AEQEQKQEVAAPCRDAYEKPAVWNTTAADSAEAAPPLRVGIIGFGNFGQFIARGIQRQGHAVLATSRSDYSAYCSAQGIRYFRSLEALCEEQPNVLLVCSSILSTEAVVRAIPFHKLRSDTIVADVLSVKQFPRNLLLEILPPEFGIVCTHPMFGPESGKHGWSTLPFVYDKVRLADKGDQKANCGQFLSIFEGEGCRMVEMSCAEHDRHAAASQFITHTIGRVLAQLNLKSTPINTKGFEALLKLTENTVSDSFDLYYGLFMYNVNATEQIEKLERAFEKVKQMLYGRLHDILRKQIVERVPI
notes: from cDNA

These proteins were tested on N[C@@H](CC1(C(=O)O)C=CC(O)C=C1)C(=O)O (assay: TyrA arogenate dehydrogenase kinetics and tyrosine inhibition (340 nm)). Conditions: other: NADP^+, pH 7.5, 37° C.
Type: biochemical, Sorghum bicolor
Excerpt: (§1) Next, to study the biochemical properties of grass TyrA enzymes, we generated and characterized recombinant purified TyrA proteins from Brachypodium (BdTyrA) and Sorghum (SbTyrA), two distantly related grass species^43, 44. Whereas TyrA enzymes from dicot plants are generally NADP^+-dependent arogenate dehydrogenases^20, 39, 45, except for NADP^+-prephenate dehydrogenases in the legume family^40, 46, previous reports on the substrate preference of grass TyrA enzymes are inconclusive^17, 19. […] NAD^+-prephenate dehydrogenase activity was absent in all cases, ruling out a significant contamination of the enzyme preparations with the TyrA enzyme from E. coli^47.48.
B1 showed a Km of 0.57 ± 0.15 mM, a kcat of 2.9 ± 0.6 s⁻¹ and a kcat/Km of 5300 ± 800 M⁻¹ s⁻¹. Protein B2 has a Km of 2.13 ± 0.53 mM, a kcat of 38.5 ± 8.8 s⁻¹ and a kcat/Km of 18100 ± 9600 M⁻¹ s⁻¹. For B3, the Km was 0.22 ± 0.06 mM, the kcat was 73.5 ± 18.2 s⁻¹ and the kcat/Km was 338000 ± 19500 M⁻¹ s⁻¹.

Substrate: N[C@@H](CC1(C(=O)O)C=CC(O)C=C1)C(=O)O
Assay: as above
Type: biochemical, Brachypodium distachyon
Conditions: other: NADP^+, pH 7.5, 37° C.
Remark: another data set of the same source
Excerpt: as §1
Protein B4 has a Km of 1.41 ± 0.24 mM, a kcat of 5.2 ± 0.8 s⁻¹ and a kcat/Km of 3600 ± 800 M⁻¹ s⁻¹. B5 gave a Km of 0.45 ± 0.04 mM, a kcat of 18.5 ± 0.6 s⁻¹ and a kcat/Km of 41200 ± 1700 M⁻¹ s⁻¹. B6 gave a Km of 0.13 ± 0.04 mM, a kcat of 76.5 ± 5.5 s⁻¹ and a kcat/Km of 580000 ± 24300 M⁻¹ s⁻¹.
